Source: publication PMC3553676

T1: Ku (Mycobacterium smegmatis, UniProt A0R3S7 1-318)
T1 sequence: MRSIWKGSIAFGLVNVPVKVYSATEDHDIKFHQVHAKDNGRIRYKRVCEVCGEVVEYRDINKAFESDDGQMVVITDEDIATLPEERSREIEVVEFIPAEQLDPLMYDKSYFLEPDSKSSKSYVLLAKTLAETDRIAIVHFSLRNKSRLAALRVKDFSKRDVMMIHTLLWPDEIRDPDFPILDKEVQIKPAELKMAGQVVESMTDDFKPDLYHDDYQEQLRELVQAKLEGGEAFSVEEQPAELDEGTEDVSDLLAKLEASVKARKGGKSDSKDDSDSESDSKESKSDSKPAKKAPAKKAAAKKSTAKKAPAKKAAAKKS

B1: 37 bp DNA (dsDNA)
DNA 1: CCTAGGCTACACCTACTCTTTGTAAGAATTAAGCTTC
DNA 2: GAAGCTTAATTCTTACAAAGAGTAGGTGTAGCCTAGG
B2: 21/34 nt hairpin substrate (structured_DNA)
DNA 1: GTTTTTAGTTTATTGGGCGCG
DNA 2: CGCGCCCAGCTTTCCCAGCTAATAAACTAAAAAC

Tests used:
Ku [1] = molecular target: T1, Ku; assay: EMSA
Ku [2] = molecular target: T1, Ku; assay: EMSA; remark: listed apart in the source

Binder	Kd (Ku [1]) [nM]	binding result (Ku [2])
B1	8.6 ± 0.5	–
B2	–	binds
